Experimental findings from patent US6890526B2, “Methods and reagents for the treatment of multiple sclerosis” (Vanderbilt University, priority 1997, dated 2005) are described below.

Data set [1] deals with MS patients. Put plainly: Long-term combination therapy of 12 progressive MS patients, EDSS (Table 11). In kind it is in vivo, human. The conditions noted are these: patient #12; azithromycin substituted.
Protocol: All 12 patients were positive by PCR for the MOMP gene of C. pneumoniae in the CSF. In 10 of 12 patients, the highest Expanded Disability Status Scale (EDSS; Kurtzke, Neurology 33:1444-1152, 1983) score reached was sustained for six months. […] The antibiotic regimen in eight of 12 patients was a combination of rifampin (300 mg twice daily), amoxicillin (500 mg twice daily) and probenecid (500 mg daily).
The subject of data set [2] is MS patients. Description: Treatment of MS patients with combinations of anti-chlamydial agents, case histories (Tables 8-10). In kind it is in vivo, human. To be noted: patient; drug stopped, later phased back in. From the text: The case histories for these patients are described in Table 9.
In data set [3] the test system is MOMP gene of C. pneumoniae. Put plainly: PCR/Southern hybridization of CSF for the MOMP gene. To be noted: CSF PCR signal for the MOMP gene of C. pneumoniae after antibiotics; all patients PCR-positive before therapy. The procedure:
To at least 300 μl of CSF sample, 200 μl of HBSS containing 0.25% trypsin and 1 mM EDTA at pH 7.2 was added to achieve a final concentration of 0.1% trypsin, and the sample vortexed and then incubated at 37° C. for 30 minutes. Following incubation, the sample was again vortexed, centrifuged for 45 minutes at 12,000×g in a microcentrifuge, and the pellet resuspended in 20 μl of lysis buffer (0.5% sodium dodecylsulfate (SDS), 1% NP40, 0.2 M NaCl, 10 μM DTT, 10 mM EDTA, 20 mM Tris-HCl at pH 7.5). To this was added 8 μl of proteinase K (20 μg/ml; Boehringer-Mannheim, Indianapolis, Ind.), after which the specimen was mixed and incubated overnight at 37° C. […]
PCR was carried out using the entire MOMP gene (1.2 kb) using Deep Vent polymerase in the manufacturer's buffer (New England Biolabs, Boston, Mass.) with no additional MgCl2. […] PCR reactions were analyzed by electrophoresis in 1% agarose gel for 45 minutes at 95 volts. For confirmation and enhanced sensitivity, the gels were further analyzed by Southern hybridization using a digoxigenin-labeled (DIG, Boehringer-Mannheim) MOMP gene probe from the TWAR strain of C. pneumoniae (ATCC VR-1310). […]
Nested PCR primers were chosen within the MOMP which are C. pneumoniae specific (located in variable domains 1 and 4) and yield a 727 bp band. […] PCR reactions were analyzed by electrophoresis in 1% agarose gel for 45 minutes at 95 volts. […]

The test system of another data set is iNOS (NOS2) gene. Description: RT-PCR for iNOS (NOS2) gene products in splenic macrophages. The class given is cell-based, mouse. The conditions noted are these: β-IFN alone; compared with GAPDH mRNA (FIG. 12A). The procedure: (§1) Splenocytes were washed twice in PBS and plated in 24-well culture plates (Corning, Corning, N.Y.) in Dulbecco's minimal essential medium (DMEM; GIBCO BRL, Gaithersburg, Md.) containing 10% fetal calf serum (FCS; Hyclone, Logan, Utah) at 37° C. for two hours. Non-adherent cells were washed away by gentle rinsing in warm medium, and the macrophages were allowed to adhere to the plastic wells overnight. For optimal growth of macrophages, colony stimulating factor-1 (CSF-1) obtained from culture supernatants of LADMAC cells (American Type Tissue Collection (ATCC), Manassas, Va.) was added to reach a final concentration of 20%. After reaching confluence, cells were removed from the plastic wells by gentle trituration and examined for their purity by staining with fluoroscein-conjugated anti-CD11b and anti-I-As (clone 10-3.6) antibodies.
Mouse splenic macrophages were homogenized in TRI reagent (Molecular Research Center, Cincinnati, Ohio), and total RNA was extracted according to the manufacturer's protocol. […]

For the next data set, the system named is iNOS. Put plainly: Measurement of NO production (nitrite, Greiss reagent) in splenic macrophage culture supernatants. In kind it is cell-based, mouse. Here is the method:
as §1
EB antigens were prepared from concentrated C. pneumoniae EBs by treating them with 25 mM DTT, 2% 2-mercaptoethanol, and 2% dodecylsulfate (SDS) for 5 minutes at 100° C. Treated EBs were sonicated, centrifuged (500×g for 30 minutes at room temperature) and the supernatant resuspended at 2 μg/ml protein in PBS pH 7.4. Concentrated C. pneumoniae EBs were obtained by growing C. pneumoniae (VR-1310; ATTC) in 25 ml flasks containing a confluent growth of HL cells (Human Lung Carcinoma Cells; Washington University Foundation, Seattle, Wash.) in DMEM and 10% FCS . Infection was facilitated by two washes with Hank's balanced salt solution (HBSS; GIBCO) followed by a 20 minute pre-incubation with diethylaminoethyl-dextran (30 μg/ml) (DEAE-Dextran; GIBCO) in HBSS. The infectious inoculum (ATCC VR-1310) was added to the flasks in 2 ml of serum-free media. The flasks were then centrifuged at 1,200×g for 1 hour at 4° C. To the spun flasks was added 2 ml of Iscoves medium (GIBCO) containing 4 μg/ml cyclohexamide, 20% FCS, 4 mM L-glutamine (Sigma), and 100 μg/ml gentamicin (Sigma). The flasks were then incubated at 35° C. for three days at which time the infected cells begin to lyse and release EBs. On day 4, the culture flasks were sonicated for 20 seconds, and the cell debris removed by centrifugation at 600×g for five minutes at room temperature. The supernatant containing the infectious EBs was centrifuged at 18,000×g for 30 minutes, and the pellet resolubilized in water containing 25 mM DTT, 2% 2-mercaptoethanol, and 2% SDS.
Preparation of purified rMOMP was performed as follows. The full-length native C. pneumoniae MOMP gene was expressed in the pET-32/a (+) E. coli expression system using a polyhistidine tag (Novagen, Madison, Wis.). Briefly the MOMP was amplified under the same PCR conditions with a NcoI extension on the forward primer and a NotI extension on the reverse primer. The 5′ to 3′ sequence of the forward primer was AGCTTACCATGGTGAATGAAAAAACTCTTAAAGTCGGCG (SEQ ID NO: 9) and the reverse primer was ATATGCGGCCGCTCATTAGAATCTGAACTGACCAGATACG (SEQ ID NO: 10). The product was cut with NotI and NcoI and ligated into the multiple cloning site in a previously linearized pET vector. E. coli was transformed and selectively grown, lysed with a French press, and the protein extract was run over a Ni-chelate column and eluted with […]. […]
NO is rapidly oxidized to nitrite in culture medium. […] After a 10 minute incubation at room temperature, the absorbance was read at 550 nm. Nitrite concentrations were calculated from a sodium nitrite standard curve.

The next data set relates to IL-12/p40. Description: Sandwich ELISA for IL-12/p40 in macrophage culture supernatants. In kind it is cell-based, mouse. Here is the method:
as §1
IL-12/p40 in culture supernatants was quantitated using sandwich ELISA methodology. Antibody C17.15 was coated onto ELISA plates at 2 μg/ml in 100 μl of carbonate buffer at pH 9.3. After overnight incubation at 4° C., excess antibody was washed off, and the plates were blocked by addition of PBS containing 3% BSA. Samples and standards were plated in triplicate and incubated overnight at 4° C. […] The absorbance was read at 405 nm and sample concentrations of IL-12/p40 were calculated from a rIL-12/p40 standard curve.
On the technique in general: ELISA stands for enzyme-linked immunosorbent assay.

As to `CO[C@H]1/C=C/O[C@@]2(C)Oc3c(C)c(O)c4c(O)c(c(/C=N/N5CCN(C)CC5)c(O)c4c3C2=O)NC(=O)/C(C)=C\C=C\[C@H](C)[C@H](O)[C@@H](C)[C@@H](O)[C@@H](C)[C@H](OC(C)=O)[C@@H]1C` [rifampin], in the data set on MS patients [1], the side effects result is recorded as “gastrointestinal side effects”.
Take `Cc1ncc([N+](=O)[O-])n1CCO` [metronidazole, Metronidazole]: the side effects result in the data set on MS patients [2] is “side effects”.
Consider `CC[C@H]1OC(=O)[C@H](C)[C@@H](O[C@H]2C[C@@](C)(OC)[C@@H](O)[C@H](C)O2)[C@H](C)[C@@H](O[C@@H]2O[C@H](C)C[C@H](N(C)C)[C@H]2O)[C@](C)(O)C[C@@H](C)CN(C)[C@H](C)[C@@H](O)[C@]1(C)O` [azithromycin], for which the “PCR Signal Post-antibiotics” value in data set [3] was “Absent”.

B1: β-IFN: Murine β-IFN obtained commercially (Bio-Source International); type-1 interferon (protein, UniProt P01575 22-182, looked up)
Interferon beta: INYKQLQLQERTNIRKCQELLEQLNGKINLTYRADFKIPMEMTEKMQKSYTAFAIQEMLQNVFLVFRNNFSSTGWNETIVVRLLDELHQQTVFLKTVLEEKQEERLTWEMSSTALHLKSYYWRVQRYLKLMKYNSYAWMVVRAEIFRNFLIIRRLTRNFQN
Regarding B1, the “RT-PCR signals for NOS2 gene” value in the data set with iNOS (NOS2) gene is listed as “increased RT-PCR signals for NOS2 gene”. Also, the nitrite levels with iNOS (10 U of β-IFN added to EB antigen-treated macrophages, 48 hours (FIG. 10)) was 27.3 ± 0.4 µM. Moreover, the “increase in NO” value in the data set on iNOS (10 U of β-IFN, macrophages cultured with LPS) was 35%. In the data set with iNOS (10 U of β-IFN, macrophages incubated with 2 μg/ml of rMOMP), the “increase in the nitrite level” value stood at 47%. The “nitrite levels in supernatants” value in the data set on iNOS (prior addition of 1000 U of β-IFN to EB antigen-treated cultures, 48 hours (FIG. 9)) came to 19.6 µM. Moreover, the “nitrite levels in macrophage culture supernatants” value in the data set on iNOS (β-IFN alone, no antigen) is given as “did not increase nitrite levels”. For the same molecule, the “suppression of induction of IL12/p40” value in the data set with IL-12/p40 (10 U of β-IFN, EB antigens) is recorded as 78%. For the same molecule, the IL-12/p40 levels in the data set with IL-12/p40 (macrophages pretreated with β-IFN, then EB antigens for 48 hours (FIG. 14)) worked out at 1.5 ± 0.09 ng/mL.
